The record followed here is US20220162583.

What all share (test): cell_activity
The subject of data set [1] is nd4 mito-nickase (1) left TALE-FokI. The following applies: zebrafish embryos; both nd4 nickase pairs co-injected.
The test system of data set [2] is nd4 mito-nickase (2) left TALE-FokI. The note with it: zebrafish embryos; both nd4 nickase pairs co-injected.
Data set [3] concerns nd5 mito-nickase right TALE-FokI. The note with it: nearly 30%; with atp8 nickase.
For data set [4], the system named is nd4 mitoTALE nuclease left. The note with it: with nd5 and atp8 nickases; deletions also with nuclease alone.
Data set [5] has as its system nd4 mito-nickase (2) right TALE-FokI. The following applies: zebrafish embryos; both nd4 nickase pairs co-injected.
Data set [6] deals with nd5 mito-nickase left TALE-FokI. The following applies: nearly 30%; with atp8 nickase.
The test system of data set [7] is atp8 mito-nickase left TALE-FokI. The note with it: nearly 30%; with nd5 nickase.
For data set [8], the system named is nd4 mitoTALE nuclease right. The following applies: with nd5 and atp8 nickases; deletions also with nuclease alone.
Data set [9] has as its system atp8 mito-nickase right TALE-FokI. The note with it: nearly 30%; with nd5 nickase.
Data set [10] deals with nd4 mito-nickase (1) right TALE-FokI. The note with it: zebrafish embryos; both nd4 nickase pairs co-injected.

“AAGTTCTGGTTTTAA (double strand) [nd4 nickase (1) left site]”: the activity (% embryos with deletion) in [1] came to 50.

For “ACGAGTTAGAAGCAT (double strand) [nd4 nickase (2) left site]”, in [2], the activity (% embryos with deletion) amounted to 50.

“AGGGCTAATGATAGT (double strand) [nd5 nickase right site]” registered an activity (% embryos with deletion) in [3] of 30.

In data set [4], “CGGGTAATAATGATT (double strand) [nd4 nuclease left site]” displayed an activity (% embryos with deletion) greater than 90.

With “GACTAAAATGAACCT (double strand) [nd4 nickase (2) right site]”, in [5], the activity (% embryos with deletion) was determined as 50.

In [6], “GCTAGATGTGGTTGG (double strand) [nd5 nickase left site]” registered an activity (% embryos with deletion) of 30.

The sequence “TAGGTTGAATGTGAT (double strand) [atp8 nickase left site]” had an activity (% embryos with deletion) in data set [7] of 30.

Take “TATATTCGAAGCTAC (double strand) [nd4 nuclease right site]”: the activity (% embryos with deletion) in data set [8] is greater than 90.

In the case of “TCCTTACTATTATTC (double strand) [atp8 nickase right site]”, the activity (% embryos with deletion) in data set [9] was determined as 30.

“TTACACCTAATTCCT (double strand) [nd4 nickase (1) right site]” registered an activity (% embryos with deletion) in data set [10] of 50.
